The labels stand for the following.
B1: humanized P2X4R scFv HC2-LC1 (scFv)
scFv: MAQVQLQESGPGLVKPSQTLSLTCTTSGFTFTDYYMSWVRQAPGKGLEWIGFIRNKANGYTTEYSASVKGRFTISRDNSKNQFSLRLSSVTAADTAVYYCARWEGDLLYAMDYWGQGTTVTVSSGGGGSGGGGSGGGGSDIQMTQTTSSLSASLGDRVTISCSASQGISNYLNWYQQKPDGTVKLLIYYTSSLHSGVPSRFSGSGSGTDYSLTISNLEQEDIATYYCQQYSKLPWTFGGGTKLEIKRAAALEHHHHHH
notes: HC-(G4S)3-LC with C-terminal His tag, expressed in E. coli
B2: humanized P2X4R scFv HC3-LC1 (scFv)
scFv: MAEVQLVESGGGLVQPGGSLRLSCATSGFTFTDYYMHWVRQAPGKGLEWVGFIRNKANGYTTEYSASVKGRFTISRDNSKNTLYLQMNSLRAEDTAVYYCARWEGDLLYAMDYWGQGTLVTVSSGGGGSGGGGSGGGGSDIQMTQTTSSLSASLGDRVTISCSASQGISNYLNWYQQKPDGTVKLLIYYTSSLHSGVPSRFSGSGSGTDYSLTISNLEQEDIATYYCQQYSKLPWTFGGGTKLEIKRAAALEHHHHHH
notes: as for B1
B3: humanized hP2X4R scFv HC3-LC3 (scFv)
scFv: MAEVQLVESGGGLVQPGGSLRLSCATSGFTFTDYYMHWVRQAPGKGLEWVGFIRNKANGYTTEYSASVKGRFTISRDNSKNTLYLQMNSLRAEDTAVYYCARWEGDLLYAMDYWGQGTLVTVSSGGGGSGGGGSGGGGSDIQMTQSPSSLSASVGDRVTITCRASQGISNYLNWYQQKPGKAPKLLIYYTSSLHSGVPSRFSGSGSGTDFTLTISSLQPEDFAYYYCQQYSKLPWTFGGGTKVEIKRAAALEHHHHHH
notes: HC-(G4S)3-LC with C-terminal His tag; also called hP2X4R HC3-LC3 scFv; HC3 LC3 hP2X4R scFv
B4: P2X4-scFv95 (parental murine anti-P2X4R scFv) (scFv)
scFv: MAEVKLVESGGGLVQPGGSLRLSCATSGFTFTDYYMSWVRQPPGKALEWLGFIRNKANGYTTEYSASVKGRFTISRDNSQSILYLQMNTLRAEDSATYYCARWEGDLLYAMDYWGQGTSVTVSSGGGGSGGGGSGGGGGSGGGGSDIQMTQTTSSLSASLGDRVTISCSASQGISNYLNWYQQKPDGTVKLLIYYTSSLHSGVPSRFSGSGSGTDYSLTISNLEPEDIATYYCQQYSKLPWTFGGGTKLEIKRADAAALEHHHHHH
notes: also called mscFv95; clone 95
B5: humanized P2X4R scFv HC2-LC3 (scFv)
scFv: MAQVQLQESGPGLVKPSQTLSLTCTTSGFTFTDYYMSWVRQAPGKGLEWIGFIRNKANGYTTEYSASVKGRFTISRDNSKNQFSLRLSSVTAADTAVYYCARWEGDLLYAMDYWGQGTTVTVSSGGGGSGGGGSGGGGSDIQMTQSPSSLSASVGDRVTITCRASQGISNYLNWYQQKPGKAPKLLIYYTSSLHSGVPSRFSGSGSGTDFTLTISSLQPEDFAYYYCQQYSKLPWTFGGGTKVEIKRAAALEHHHHHH
notes: HC-(G4S)3-LC with C-terminal His tag
B6: humanized P2X4R scFv HC1-LC1 (scFv)
scFv: MAEVKLVESGGGLVQPGGSLRLSCATSGFTFTDYYMSWVRQPPGKALEWLGFIRNKANGYTTEYSASVKGRFTISRDNSQSILYLQMNTLRAEDSATYYCARWEGDLLYAMDYWGQGTSVTVSSGGGGSGGGGSGGGGSDIQMTQTTSSLSASLGDRVTISCSASQGISNYLNWYQQKPDGTVKLLIYYTSSLHSGVPSRFSGSGSGTDYSLTISNLEQEDIATYYCQQYSKLPWTFGGGTKLEIKRAAALEHHHHHH
notes: as for B1
B7: P2X4-scFv103 (scFv)
scFv: MAQVQLKESGAELVRSGASVKLSCTASGFNIKNTYMHWVKQRPEQGLEWIGRIDPASGNTKYAPKFQGKATITADTSSNTAYLQLSSLTSEDTAIYYCARFYDGYYWGQGTTLTVSSAKTTAPSGGGGSGGGGSGGGGSGGGGSAIMSASPGEKVTMTCSASSSVSYMHWYQQKSGTSPKRWIYDTSKLASGVPARFSGSGSGTSYSLTISRMEAEDAATYYCQQYSGYGTFGGGTKLEIKRADAAALEHHHHHH
B8: P2X4-scFv12 (scFv)
scFv: MADVKLQESGPGLVKPSQSLSLTCSVTGYSITSGYYWNWIRQFPGNKLEWMGYISYDGSNNYNPSLKNRISITRDTSKNQFFLKLNSVTTEDTATYYCARSDYDLYYYAMDYWGQGTSVTVSSAKTTPPSGGGGSGGGGSGGGGGSGGGGSDIVMTQSPATLSVTPGDRVSLSCRASQSISDYLHWYQQKSHESPRLLIKYASQSISGIPSRFSGSGSGSDFTLSINSVEPEDVGVYYCQNGHSFPLTFGSGTKLEIKRADAAALEHHHHHH

Ends that are not written are not given here. Where only a bound is given, the exact number is not on record here.

In one experiment the target is T1, human P2X4 peptide (human, UniProt Q99571 301-313).
T1 construct: range 301-313; The range 301-313 is stated for rat P2X4R, with the human peptide as its 'human form'; also called human Target P2X4R peptide; thirteen amino acid extracellular peptide fragment of human P2X4 receptor
T1 peptide (looked up): RDLAGNEQRTLIK
Briefly: indirect ELISA on human P2X4 peptide.
Take B1: the “fold affinity improvement over parental mscFv95” value (“fold affinity improvement” below) is above 10 fold.
B2: the “fold affinity improvement” value is above 10 fold.
Regarding B3, the “fold affinity enhancement over parental mscFv95” value is above 50 fold and the “fold affinity improvement” value is above 10 fold.

The target in another experiment is human and mouse peptide targets. Briefly: not stated (estimated affinity).
Turning to B4, the Kd is 0.13 to 0.19 µM.

In another experiment the target is T2, Hu CCK-B receptor protein (human, UniProt P32239 1-447, limits assumed).
T2 construct: also called human CCK-B receptor
T2 sequence (looked up): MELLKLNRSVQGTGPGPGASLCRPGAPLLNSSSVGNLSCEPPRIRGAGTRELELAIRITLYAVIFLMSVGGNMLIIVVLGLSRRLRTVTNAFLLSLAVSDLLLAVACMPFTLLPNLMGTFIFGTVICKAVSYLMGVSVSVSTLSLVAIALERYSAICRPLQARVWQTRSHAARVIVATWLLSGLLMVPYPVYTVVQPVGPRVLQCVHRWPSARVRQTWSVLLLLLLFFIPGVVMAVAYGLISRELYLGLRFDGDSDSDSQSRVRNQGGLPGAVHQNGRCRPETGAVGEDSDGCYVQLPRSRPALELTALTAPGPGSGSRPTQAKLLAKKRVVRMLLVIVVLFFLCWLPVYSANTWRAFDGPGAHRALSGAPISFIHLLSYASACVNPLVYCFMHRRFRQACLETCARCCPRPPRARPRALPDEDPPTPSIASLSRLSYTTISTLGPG
Briefly: indirect ELISA on human CCK-B receptor protein, concentration not shown. A general note: In an ELISA, binding on a coated surface is turned into a signal by an enzyme label.
Consider B5, for which the binding result was “no binding”.
Still for that read-out and setting: the same measure for B4: “no binding”.
Still for that read-out and setting: the same measure for B1: “no binding”.
Same read-out and setting: next, B6: “no binding”.
With B2, the binding result is recorded as “no binding”.
For the molecule B3, the binding result was “no binding”.

A further experiment concerns the target T3, rat P2X4R extracellular peptide (a.a. 301-313, C-RDLAGKEQRTLTK) (rat, not fully specified (N-terminus)).
T3 construct: also called P2X4R peptide; rat P2X4 peptide
T3 peptide: RDLAGKEQRTLTK
Briefly: indirect ELISA of purified scFv on rat P2X4 peptide, concentration not shown.
As for B5, the binding result is given as “binds”.
The same measure, in the same setting: the same measure for B1: “binds”; for B6: “binds”.
Same read-out and setting: next, B2: “binds”; B3: “binds”.

The next experiment has as its target T3, rat P2X4R extracellular peptide (a.a. …). Briefly: indirect ELISA titration on P2X4R peptide; legend box headed 'APPARENT Kd (nM)'.
Turning to B7, the Kd stood at 0.978 µM.
Still for that read-out and setting: the same measure for B4: 0.13 µM.
Still for that read-out and setting: next, B8: 0.177 µM.

In the next experiment the target is T1, human P2X4 peptide. Briefly: indirect ELISA, wells coated with human P2X4 peptide, anti-His detection.
Molecule B5 gave a Kd of 0.029 µM.
On to B4, for which the Kd was found to be 0.13 µM.
Same read-out and setting: next, B1: 0.012 µM.
The same measure, in the same setting: the same measure for B6: 0.024 µM; for B2: 0.0047 µM; for B3: 0.0023 µM.

(Values after patent US20250059273A1 (UNM RAINFOREST INNOVATIONS, published 2025).)
